Test results published in the DeepSol protein solubility set.

experiment: soluble on expression in E. coli; label from the status in PepcDB or PDB records

For “SPGRSSTSSGSTRYISFSGIESALSSLKNFQSCISSGMDTVSSVALDLVETQTEVSSEYSMDKAMVEFAKMDRELSHYVKAVQSTINHVKEERPEKVPDLKLLVEKKFLALQDKNSDADFKENEKFVQFKQQLRELKKQYGIHADRENDLTEGVDEDMIVTQSQTNFICPITQLEMKKPVKNKMCGHTYEEEAIVRMIESKHKRKKKACCPKIGCSHTDMRMSDLIPDEALRRAIESHNKKKKRHSE”, which “soluble on expression in E. coli” value is on record?
Its value is “soluble”.

Which “soluble on expression in E. coli” value does the source give for “MHFVKKVPTTEEEKAAKQKEHTKRSQQFLHVRDKIVAKREKGEYDDEILSLTQAILEKNADIYTFWNIRRTTIELRMEANEKVQQSADAEEEEKTKSSQKIENLLAGELFLSYECIKSNPKSYSAWYQRAWALQRQSAPDFKKELALCEKALQLDCRNFHCWDHRRIVARMAKRSEAEELEFSNKLINDNFSNYSAWHYRSIALKNIHRDEKTGAPKIDDELIASELQKVKNAFFMDAEDQSAWTYTRWLLEVGSGKEFLRPESHTPIELISASFHGNNTTLVFSRAVTIQFLLTFVDTENTTGWRAFSSTSPNPTSSRVWQYLSDTPLRVVTSNPTDLENISWTELNEQPYVNLDRLKTIYDVVEVPQPAYIGELLEDCKQLIELEPKNKWPLYMRTLVLLEYQPIKSYEEIIKNLENLSENLDPKRSELYKSLISRQNLNFSIREQFERILGPDTDWLTCRYSKLTSLEGVEYLAGFVGSADFSGNRLKEIQRIVLPNLKSLTINENPIESLPPSPCLSHLTFFSIAGTQIASVSAVMPFFQTIPSLDRLVFCETPLVEKTEELRAQLPGVRLIPHWL” here?
Its value is “soluble”.

Which “soluble on expression in E. coli” value does the source give for “PQQSTWQMATNTPLECRLVHPIPNYGDAEFSSRAGKKINLDFELKMRRPMGDTRNVSLVSMPPVWRPGEGADRITNLQFFKQFDGYIGGQTAWSLLSELEKGRYPTFSYQDWQSRDQRIEVALSSVLFQQPYNEFSDCISKLLPYS” here?
Its value is “not soluble”.

For “MHHFSAGRSNSIGLRQSVSDKGIEIVNLLAPKVEMLGFDLLGAEYLLVPSGAILRLYIDIPFAMQPECMVSIDDCERVSREVSAYLDLEEPISGNYTLEVSSPGLDRRLFTLEQFARHHNHLVKVGLKLQQHGSRRLQGKIVRVEQVGGFVVLLVNGVELAVDFNNIDKARIVPDWSALGLAPLEKSKHDTKKMSQGSKKPSNESAARQAVRGVIR”, which “soluble on expression in E. coli” value is on record?
Its value is “not soluble”.

With “MGSDKIHHHHHHMLSRTADHLFWMSRYTERAENTARMLNVSYETSLLPQSADVAQESWLGLLSISELIPAYTARHGEVTREGVLEFMVRDGDNPSSILSCLRAARENARAVRGALTTEIWETQNQTWLELHRQLQGRDFERDPGAFFEWVKYRSHLSRGVTLGTMLQDEAFHFLRLGTFLERADNTARLLDVKFHAVQSDFHGSAMRERGRAAPQEFDFYHWSAILRSVSAFEVYRKVYRDVITPERVADLLMLRADMPRSLHASLREVADNLAVVANDQSAETQRKAGRLLADLRYGRIDEILATGLHAYLTQFLDRVNDLGAGISRDFLVPVPA” as the sequence, how does the “soluble on expression in E. coli” value read?
The value was “not soluble”.

For “MHYSDHFHKVCIASELNEFTDAFRIIYSWLFSLKLLEPKFMDKDSIFCRLFTSIHFRLKYIAAPHYEERKRHLETLEKDGVPKAYIREYAEQQLNVIKQFKLEQKPIGHSFSTDEIIDAARCFGELSNGISVRSRYQRFRAVCMSWFSFMEVITGKDKSYPGSNYVDMFCEWHLTSKGSSVGATVHICQELDRFFAYINSKSVTINLLTAACIDGYIETYQSACFARKTVASKVSILRTFLRYLYNRSIIKTDMSSYLISPRIYTCEILSVSPNENDLNRISHFYDGNTPSAIRNKAILLLLIEYGMRSGGSYRFKT”, which “soluble on expression in E. coli” value is on record?
Its value is “not soluble”.

For “MAHHHHHHMTHMGRAADGYQRLGNNYPQVTPSSHFAAASPDPVLATPIQTRPLQGNPFHPLLWNGSATSSTGAAGVQASLSRKSRTRLTSGVTAGSSSGPLSSTLSLSTPLSSCASAAASGEGRFQRRVSRDRFGACSTPTSSSTTAQVLQLQRPAQSPMPPLSSSPPASVGLTAAAARGAVTPANLGRERKVAAVNYNALFQQELQQQQRQGSDTGAWPTPSPSPPSGALQYAQLPPSASADVHGTGAHSGSGEGVSEALSSSVTASSVQAGTAEGPLPPDVRRIIAQSCTSSSSSSGADTNAIIDAAEQQARRLISTGRRVKVYREELTTAEEERNDLSAAVEERRLVRSVLQSEVDDINARIQALLQERALAEAQLHAQDDAAAREARKLTEAQDRVTVLRKTIEGIVEETSAARLMLRQIVPSLHIENYY”, which “soluble on expression in E. coli” value is on record?
The value was “not soluble”.

Which “soluble on expression in E. coli” value does the source give for “VEQIMIQGTASDAGKSVIVAGLCRLFKNKGKRVVPFKSQNMSLNSFITATGDEMGRAQVFQAEAAGVFPDVRMNPVLLKPTNDRQSQVIFMGAILDNMDAVSYHDFKQTLIPKIQAVYQSLADENDIIVLEGAGSPAEINLNDRDIVNMGMAKMVDAPVVLVADIDKGGVFASIYGTIMLLKEEERARLKGVIINKFRGDVALLQPGIEMIEELTNVPVIGVIPYANLQL” here?
The value was “not soluble”.

Which “soluble on expression in E. coli” value does the source give for “MGSDKIHHHHHHMALRIAFLTVGDPQRRTGGYLYHREVFRCWQARNQPVEEIVLGPADVAGQIAASNRAGQLVEAGRYDVIVVDALARAVVAPWLAHWQRLCPLVTLVHELPTVAGASDPREYEWEQMLLRADALVAVSDDGANTLIARGVEAARIHIASGGCDRLLSRMPVGKAREELVIAVAQWIPRKNLAHLVRVWGQVAEHPWRLELIGESDADPVYAGEVWQAIQHCPANVIVRGVLADDELAERYARASLFALPSRFEGYGLVFAEALACGLPVIAGAVGPVPALVGAGGMLVHPDDEQALSVALRTVMRDAHLRQHLSTAARQRASTLPRWQDTAQHLLCAIEWAYAQRHRVST” here?
The value was “not soluble”.

With “MGSDKIHHHHHHMRLTSREKEIFEVLKKEPLISQEELARRFNITRSSIAVHISNLMKKGVILGKGYVFNEQVSVVVIGESYYYIKTSGPDNDCSINMGLGGFAVDTGRIFANFGLNVKLITIVGNDEEGTNIFNELQGKGVDIVNIFRHAKKRSCRKVFLDDKRILEENFSLQDYEKAIDAREWVVFNCEWLVVDTRFQELLCHKAIGKDEEKLPFFCTCRYLYSIEEIPSFLSRYDLLVLGVADSNIMDHYLSQALALSSNGVQSVILSDGNTRLFYFQKGNAHEFPLLPNQCFDSQEGLPALLAGIVYGLSSGYSLRQAVRIAVGTAASND” as the sequence, how does the “soluble on expression in E. coli” value read?
The value was “not soluble”.

With “QVQLVQSGAEVKKPGSSVKVSCTSSEVTFSSFAISWVRQAPGQGLEWLGGISPMFGTPNYAQKFQGRVTITADQSTRTAYMDLRSLRSEDTAVYYCARSPSYICSGGTCVFDHWGQGTLVTVSSGGGGSGGGGSGGGGIQPGLTQPPSVSKGLRQTATLTCTGNSNNVGNQGAAWLQQHQGHPPKLLSYRNNDRPSGISERFSASRSGNTASLTITGLQPEDEADYYCSTWDSSLSAVVFGGGTKLTVLGQPKAAPSAAAEQKLISEEDLNGAAHHHHHH” as the sequence, how does the “soluble on expression in E. coli” value read?
The value was “soluble”.

Which “soluble on expression in E. coli” value does the source give for “PLEKTVRLHSSSGTTGNPTVILHTQKDLDEWANAVARCLYMVGLRPGDIFQNSSGYGMFTGGLGFQYGAERLGMLTVPAAAGNTKRQLKFISDFGTTALHAIPSYAARMYEIMQEMGIDPRRDTKLRTLIIGAEPHSEEQRRRIEDMLGVKAYNSFGMSEMCGPGVAFECQEQNGLHIW” here?
Its value is “not soluble”.

For “MSLGSSDLPAHALVGYLHASFANGSGYTRMADVPDSWDVIDLAFGEPTSVTSGDIRFERCPVAECPNVESDAEFKAAIKAKQAAGKKVLISIGGQNGQVQLTSTAARDKFVSSVSAIIDEYGLDGLDIDFEGHSLSLNADDTDFKNPKTPVIVNLVSAVKTLKAKYGDGFVLTMAPETFFVQLGYQYYGTGKWGGQDPRAGAYLPVIHALRDDLTLLHVQDYNSGSIMGLDNQYHSMGGADFHIAMTDMLLTGFPVAGDANNVFPPLRPDQVAIGMPASTQAGNGHVSPAEVTKALNCLTKKTDCGSYATHGTWPDLRGLMTWSINWDRYSNWEFQKNFDAYFGEGHHHHHH”, which “soluble on expression in E. coli” value is on record?
The value was “soluble”.

For “MSLKQIPLAERMRPKTLADYVGQQHLIGSGAVLRQMIEQGQTPSMILWGPPGVGKTTLAEIIAHEVDAPFYTLSAVSSGVKEVREVIADIESNRGNLFDKGGRAILFIDEIHRFSKSQQDSLLAAVERGIVTLIGATTENPSFEVIRPLLSRCQVYVLKPQSDEDLLLLAHRAIDRDELLAAKHPVLEETEALLLYAGGDARKLLNILDLLATSEVEDRLVITNEKIRQRLQENPAAFDKGGELHYDIASAFIKSIRGSDPDAAIYWLARLIDGGEEPSFIARRLIISASEDIGLANPNAMLIAMACAEALDRIGWPEGRIPLAEATIYLATSEKSNSAYLAIDSALEYVRQSGNLPVPLHLRNAPTRLMADLDYGKGYKYSHDFPEHFVSQQYLPDKAANTSFWTPQMHTVHEAKLGERMKRWWKREKSQKDEGHHHHHH”, which “soluble on expression in E. coli” value is on record?
The value was “soluble”.

With “MGSDKIHHHHHHMTKDQQNIERGSVINVEILNAAHGGQGIAKYDGRVIFVKGAFPGDRLSANITHVKKKFARATIASIEMPSPLRMQQRCLAAANGAGCCDFGEFDPEIEGRYKADLVLEQLERLGKVSQPPTCEVVSFGSPTQWRTRMRLGVDAQGRAGGFASQSREVVSGVPCSQGVMGLLDGIVGAEQNVLRFTPGSQVVVVCDDLGQRTVVETQPAPRGKRTESMVKVVEGTGKVSQVVDGVTFELPATGFWQSHKDAAQAYADTIREWFGSLIIRNTDSSLVAWDLYGGCGSFASAILSAVDNHGVVHCVESAPAAVSAGKRALSQLVEDQKIVFHTETVERAMNQLPAPTLVVLDPPRVGAGAETVRAIAQSGPQAAIHIGCDPATFARDIAEWSRNGFILEKLRVFDAFPGTHHCETIGLLTKKN” as the sequence, how does the “soluble on expression in E. coli” value read?
Its value is “not soluble”.

Which “soluble on expression in E. coli” value does the source give for “MSLGYHTLEVTVGNEAETATVISAPEKIELLDDMKNGSLWGWMSQLYSIRSKGSWGVGDFEDLKTMLVEAKKKTGSDFMLINPMHAAEPVPPLTPSPYLPISRRFINFSYIRPESMPEYLTLSHEDRAEVDALHEQVESLNDDARLIDRDAMWRVKKHALWVIYKAGRTKARQAEFDRYLAECGDEIESYATWCLCYDKWGAPSDDADNWVRKYNRDSEEVAQLREKFPDTLEFYRWLEWVATDQLHAAQQAARKAGMKIGIVADMAVGVHPAGSDVWWNPERFAKGATVGAPPDMFNQQGQDWSQPPLNPIALEQTGFKVYRDMVHDMFANAGAVRIDHILGLFRLWWIPEGKPATDGTYVHYDSDVMLGILALEASRAGGVVVGEDLGVVPAYVSKSLSEHGILGCAVEWFEQMDGVFRTPKDWRPYALASVNTHDMPPAAGYLEYGHVKLREQLGLLSGPVEEFQKSATAEHNAMLNMLVEEGYLDKAALDDEAANENEIVDALYRGLKGSPCKLMAASIVDAVGEKRTQNQPGTNNEYPNWRIPLADGEGNVVPLEKLFDEPRLQEITAIMREGHHHHHH” here?
Its value is “not soluble”.

For “MAHHHHHHMNRHNKFYAEVADELEGEDYYDDDDDDYNNDEEYEEEGEYDEAAYETTASAASPEPVHMPKSTTQATAPAAAAVRVNPYTTISPQVDDDYELLDVLLPQLHALWKTNAPTMLPLSEGEAVTALRASNYDVEPAFLQLKEKRDEERSKRGGGVLRVAAAAGPAKRASTPPTVEPPEPGGEAASDNEGNSASPSASSGRTTITLRGWKGASQRRTKQMLEMEPDKEKPDCTFVIAGHVDAGKSTTLGHLLLLLGRVSIQDVERNEKADRTHHKDSFKYAWLLDQCEEERRRGVTIDSGSFCFETEHRRVHILDAPGHKDFVLNMISSATQADAALLVVTATNSEFETGLHHGTKSHLLVLKTLGVGSIVVAVNKMDAVAYSQERYDYVVRELQLLLKQTRIPEEAIIGFCPISGMTGVNITQRGAKETPWYHDLSLIEMIDRCPLESRLVNSPLRLSLQDVQGTTLYAKVESGRLFTGDMVHFVPSEVRVTIKSIQKPTVAGPVLVAFAGETVEISTNSSVTGLYPGCVGCEPNLLIRSSTDFEAHIQTFRTLTKAILPGASFTIIVHALTVRVHVAALISKMDSKTGNWSKGMVKCVPPAAQAMMLFRAESPVALEPATECRALGRFVLQQDGETVAGGLVTRVVDKA”, which “soluble on expression in E. coli” value is on record?
Its value is “not soluble”.

For “GSHMASADLVSSCKDKLAYFRIKELKDILNQLGLPKQGKKQDLIDRVLALLTDEQGQRHHGWGRKNSLTKEAVAKIVDDTYRKMQIQCAPDLATRSHSGSDFSFRPIEEA”, which “soluble on expression in E. coli” value is on record?
The value was “soluble”.
